Target: the molecule itself
Test: SEC

B1: recombinant A/WSN/1933 (H1N1) NP, NΔ7NP with C-terminal His tag (WT) (natural protein)
chain: RSYEQMETDGERQNATEIRASVGKMIGGIGRFYIQMCTELKLSDYEGRLIQNSLTIERMVLSAFDERRNKYLEEHPSAGKDPKKTGGPIYRRVDGKWMRELILYDKEEIRRIWRQANNGDDATAGLTHMMIWHSNLNDATYQRTRALVRTGMDPRMCSLMQGSTLPRRSGAAGAAVKGVGTMVMELIRMIKRGINDRNFWRGENGRRTRIAYERMCNILKGKFQTAAQRAMVDQVRESRNPGNAEFEDLIFLARSALILRGSVAHKSCLPACVYGPAVASGYDFEREGYSLVGIDPFRLLQNSQVYSLIRPNENPAHKSQLVWMACHSAAFEDLRVSSFIRGTKVVPRGKLSTRGVQIASNENMETMESSTLELRSRYWAIRTRSGGNTNQQRASSGQISIQPTFSVQRNLPFDRPTIMAAFTGNTEGRTSDMRTEIIRLMESARPEDVSFQGRGVFELSDEKAASPIVPSFDMSNEGSYFFGDNAEEYDN
notes: also called WT NP; pET28a-NΔ7NP
binding result: binds

— paper PMC12788653 (PLOS Pathogens, 2025)
